The text below walks through data of PMC3695229.

The test has as its target human TGF-β2 (human). Nature of the test: SPR; Biacore 2000; biotinylated ligands immobilised on streptavidin-coated CM5 chip, TGFR-3-ZP variants as analytes; 25°C, HBS500 (10 mM HEPES pH 7.4, 500 mM NaCl, 3.4 mM EDTA, 0.005% P20); apparent affinities from equilibrium binding. Background: In SPR one partner is held on a chip, and binding of the other changes the refractive index at the surface.

Changes are numbered by the printed parent chain.

B1: TGFR-3-ZP(234) (domain or fragment)
chain: REPEEVQGGVNIALSVKCDNEKMVVAVDKDSFQTNGYSGMELTLLDPSCKAKMNGTHFVLESPLNGCGTRHRRSAPDGVVYYNSIVVQAPSPGDSSGWPDGYEDLESGDNGFPGDTDEGETAPLSRAGVVVFQCSLRQLRSPSGFQDQLDGQATFNMELYNTDLFLVPSPGVFSVAENEHVYVEVSVTKADQDLGFAIQTCFISPYSNPDRMSDYTIIENICPKDDSVKFYSSKRVHFPIPHAEVDKKRFSFVFKSVFQTSLLFLHCELTLCSRNKGSQKLPKCVTPDDACTSLDATMIWTMMQNKKTFTKPLAVVLQVDYKENVPNMKESSPVPPPPQIFHGLD
modifications: one remaining potential N-glycosylation site (N491)
For B1, the Kd was 2.7 µM.

B2: murine TGFR-3-ZP (recombinant ZP domain of TGF-β receptor type 3, residues 438-782, including the EHP) (domain or fragment)
chain: B1 chain with Q133N, Q152N, Q259N
modifications: secretory glycoprotein; four potential N-glycosylation sites (positions 491, 570, 589 and 696)
In the case of B2, the Kd was determined as 2.4 µM.
